Earlier results on three substances are cited in article PMC9154193.

The term Kd denotes the free concentration of one partner at which half of the binding sites on the other are occupied at equilibrium, for simple one-to-one binding.

Among the targets are ULBP3 (Homo sapiens) (UniProt Q9BZM4); Grb2 SH3 (Homo sapiens) (UniProt P62993); Lck SH2 (Homo sapiens) (UniProt P06239).
Sequence of UniProt Q9BZM4 (Q9BZM4 30-217): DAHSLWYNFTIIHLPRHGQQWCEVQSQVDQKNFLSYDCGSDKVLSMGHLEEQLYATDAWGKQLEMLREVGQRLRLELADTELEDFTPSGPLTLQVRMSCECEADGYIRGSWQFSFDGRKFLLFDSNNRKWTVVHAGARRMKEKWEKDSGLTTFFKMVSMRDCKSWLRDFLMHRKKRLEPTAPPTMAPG
Sequence of UniProt P62993 (P62993 156-215): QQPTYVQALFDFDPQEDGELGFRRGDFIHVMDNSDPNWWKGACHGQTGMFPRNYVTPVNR
Sequence of UniProt P06239 (P06239 124-227): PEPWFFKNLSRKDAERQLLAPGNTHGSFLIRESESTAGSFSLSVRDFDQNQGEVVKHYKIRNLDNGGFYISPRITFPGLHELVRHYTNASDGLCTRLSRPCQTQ

Take NKG2D (from UniProt P26718): the Kd with ULBP3 (Homo sapiens) is 4 µM.

Vav1 SH3 (from UniProt P15498): the Kd in the data set with Grb2 SH3 (Homo sapiens) was 16.8 µM.

“Vav1 phospho-tyrosine region (from UniProt P15498)”: in the data set with Lck SH2 (Homo sapiens), the Kd is 1.39 µM.
